B1: Nb03 (VHH)
VHH: QVQLQESGGGLVQAGGSLRLSCVVSGHTFSGYVMGWFRQAPGKEREFVSSISGYGGITDYADSVKGRFTMSRDNAKNTVYLRMNSLKPEDTAVYYCAVRRSGSSREYDYWGQGTQVTVSS
notes: from an alpaca immunized with full-length VAR2CSA; pHEN6c vector; also called Nanobody 03; VHH; source: E. coli WK6, periplasmic extract, purified (HisTrap); not shown: His6, C-terminal, kept
B2: Nb05 (VHH)
VHH: QVQLQESGGGLVQPRGSLRLSCTASERDFGLVVMGWHRQAPGKQRELVAQIGTGGRTNYADSVKGRFTISIDAAKNTVYLQMNNLKPEDTAVYYCNAPLSGIWGQGTQVTVSS
notes: from an alpaca immunized with full-length VAR2CSA; pHEN6c vector; also called Nanobody 05; VHH; source: E. coli WK6, periplasmic extract, purified (HisTrap); not shown: His6, C-terminal, kept
B3: Nb10 (VHH)
VHH: QVQLQESGGGLVQAGGSLRLSCAASGRTFSSNLMGWLRQAPGKEREFVAAMSMSGGDTFYADSVKGRFTISRDNAKNMVHLQMNSLKPEDTAIYYCAAADVRLSAYEYDYWGQGTQVTVSS
notes: from an alpaca immunized with full-length VAR2CSA; pHEN6c vector; also called Nanobody 10; VHH; source: E. coli WK6, periplasmic extract, purified (HisTrap); not shown: His6, C-terminal, kept
B4: Nb07 (VHH)
VHH: QVQLQESGGGLVQAGGSLRLSCAASGFTFDDYVIGWFRQAPGKEREGVSCISRSDGSTYYADSVKGRFTISSDNAKNTIYLQMNSLKPEDTAVYHCAAAMTHFGLGPGPNEYDYWGQGTQVTVSS
notes: from an alpaca immunized with full-length VAR2CSA; pHEN6c vector; also called Nanobody 07; VHH; source: E. coli WK6, periplasmic extract, purified (HisTrap); not shown: His6, C-terminal, kept
B5: Nb13 (VHH)
VHH: QVQLQESGGGLVQPGGSLRLSCAFSGRTSRNYAMAWFRQAPGKEREFVAATSWNGDITPYGVVVKGRFTISRDNAKSTVYLKMNDLKPEDTAVYYCAAEPRFAPPVVAHEYDYWGRGTQVTVSS
notes: from an alpaca immunized with full-length VAR2CSA; pHEN6c vector; also called Nanobody 13; VHH; source: E. coli WK6, periplasmic extract, purified (HisTrap); not shown: His6, C-terminal, kept
B6: Nb06 (VHH)
VHH: QVQLQESGGGLVQAGGSLRLSCAASGFTFDDYAIGWFRQAPGKEREGVSCISSSDGVTYYVDSVKGRFTISSDNAKNTVYLQMNSLKPEDTAVYHCAASPDYYCDAGFLNYGIDYWGEGTQVTVSS
notes: from an alpaca immunized with full-length VAR2CSA; pHEN6c vector; also called Nanobody 06; VHH; source: E. coli WK6, periplasmic extract, purified (HisTrap); not shown: His6, C-terminal, kept
B7: Nb17 (VHH)
VHH: QVQLQESGGGLVQPGGSLRLSCAASGFTFSGSASWVRQAPGKELEWVSSISGFGGITDYADSVKGRFTISRDNSKNTLYLQNSLKPEDTAVYYCAKGRTGWTSSFLRGQGTQVTVSS
notes: from an alpaca immunized with full-length VAR2CSA; pHEN6c vector; also called Nanobody 17; VHH; source: E. coli WK6, periplasmic extract, purified (HisTrap); not shown: His6, C-terminal, kept

Legend:
[1] = biological target: T1, full-length VAR2CSA (FV2) recombinant protein, FCR3 (Plasmodium falciparum FCR3, UniProt Q6UDW7, strain); assay: ELISA; recombinant VAR2CSA protein or domain (50 nM in PBS) coated on MaxiSorp plates overnight at 4°C; Nb 50 nM in 1% skim milk in PBS, 90 min RT; detected with rabbit anti-camel and HRP anti-rabbit, OD 490 nm after 20 min; conditions: both partners purified
T1 construct: VAR2CSA (PfEMP1 family), Plasmodium falciparum strain FCR3, full-length recombinant protein; also called FV2-FCR3; source: recombinant, purified, expressed as described in [33]

[2] = biological target: T2, native VAR2CSA on the surface of NF54 infected erythrocytes (Plasmodium falciparum NF54 (VAR2CSA …, UniProt Q8I639, strain)); assay: flow cytometry on cells; late stage VAR2CSA-expressing IE (FCR3, 7201, NF54) incubated with Nb (0,1 mg/ml), 30 min at 4°C; detected with mouse anti-penta-His and FITC anti-mouse; specific recognition defined by an MFI ratio >1.2; conditions: one partner purified
T2 construct: VAR2CSA of the P. falciparum parasite line NF54, native protein on infected erythrocytes; also called VAR2CSA-expressing IE (NF54); source: endogenous, on P. falciparum NF54-infected erythrocytes

[3] = biological target: T3, VAR2CSA DBL3 domain, baculovirus-produced (Plasmodium falciparum FCR3 (implied), UniProt Q6UDW7, strain); assay: ELISA; recombinant VAR2CSA protein or domain (50 nM in PBS) coated on MaxiSorp plates overnight at 4°C; Nb 50 nM in 1% skim milk in PBS, 90 min RT; detected with rabbit anti-camel and HRP anti-rabbit, OD 490 nm after 20 min; conditions: both partners purified
T3 construct: DBL3 domain; also called DBL3X; source: baculovirus expression system, as described in [11], [20]

[4] = biological target: T4, ID1–ID2a minimal CSA-binding region of VAR2CSA, baculovirus-produced (Plasmodium falciparum FCR3, UniProt Q6UDW7, strain); assay: as above; conditions: both partners purified
T4 construct: VAR2CSA, P. falciparum FCR3; ID1–ID2a region encompassing DBL2X with the flanking parts ID1 and ID2; also called ID1–ID2a (BV); source: baculovirus expression system, as described in [11], [20]

[5] = biological target: T5, ID1–ID2a minimal CSA-binding region of VAR2CSA, produced in Schneider 2 (S2) cells (Plasmodium falciparum FCR3, UniProt Q6UDW7, strain); assay: as above; conditions: both partners purified
T5 construct: ID1–ID2a region; also called ID1–ID2a (S2); source: Schneider 2 (S2) cells

[6] = biological target: T6, VAR2CSA DBL6 domain, baculovirus-produced (Plasmodium falciparum FCR3, UniProt Q6UDW7, strain); assay: as above; conditions: both partners purified
T6 construct: DBL6 domain; also called DBL6ε; source: baculovirus expression system, as described in [11], [20]

[7] = biological target: T7, ID1–ID2a minimal CSA-binding region of VAR2CSA, produced in E. coli (Plasmodium falciparum FCR3, UniProt Q6UDW7, strain); assay: as above; conditions: both partners purified
T7 construct: ID1–ID2a region; also called ID1–ID2a (coli); source: E. coli

[8] = biological target: T8, DBL1-ID2a protein of VAR2CSA (containing minimal CSA-binding region), baculovirus-produced (Plasmodium falciparum FCR3 (assumed for …, UniProt Q6UDW7, strain)); assay: far-Western, overlay or dot blot; Western blot: recombinant VAR2CSA domain (0,4 µg/lane) run NON-REDUCED on SDS gel, blotted to nitrocellulose, probed with 50 nM Nb in TBST; rabbit anti-camel and HRP anti-rabbit; conditions: both partners purified
T8 construct: DBL1-ID2a; source: baculovirus-produced

[9] = biological target: T6, VAR2CSA DBL6 domain, …; assay: ELISA; recombinant VAR2CSA protein or domain (50 nM in PBS) coated on MaxiSorp plates overnight at 4°C; Nb 50 nM in 1% skim milk in PBS, 90 min RT; detected with rabbit anti-camel and HRP anti-rabbit, OD 490 nm after 20 min; conditions: both partners purified; remark: listed apart in the source

Row | Binder | binding result [1] | binding result [2] | binding result [3] | binding result [4] | binding result [5] | binding result [6] | binding result [7] | binding result [8] | binding result [9]
1 | B1 | binds | binds | no binding (tested: 50 nM) |  |  |  |  |  | 
2 | B2 | binds | binds | no binding (tested: 50 nM) |  |  |  |  |  | 
3 | B3 | binds | binds | no binding (tested: 50 nM) | binds | binds | no binding (tested: 50 nM) | binds | binds | 
4 | B4 | binds | binds | no binding (tested: 50 nM) | binds | binds | no binding (tested: 50 nM) | binds | binds | 
5 | B5 | binds |  | no binding (tested: 50 nM) |  |  |  |  |  | 
6 | B6 | binds |  | no binding (tested: 50 nM) |  |  |  |  |  | binds
7 | B7 | binds | binds | no binding (tested: 50 nM) |  |  |  |  |  | 
